Reference: publication PMC9082627

Biological target: STX17-Flag (UniProt P56962)
Assay: co-IP

- reduction of the co-immunoprecipitated interaction against STING WT: 50%
Substance: STING-HA C148A (from UniProt Q86WV6 1-379) (natural protein)
